Experimental data as given in paper PMC11302929.
Values joined by “and” are separate entries in the source; they are usually repeats but may differ in a detail not shown here. Equal values may be shown once.

Experiments:
[1] = target: recombinant soluble NDV HN ectodomain including the stalk domain, without oligomerization domain (HN-M) (Newcastle disease virus); experiment: SEC; Superdex 200 Increase 10/300 GL column, freshly purified NDV HN proteins
[2] = target: recombinant soluble NDV HN ectodomain with tetrabrachion tetramerization domain (HN-TE) (not stated | Newcastle disease virus); experiment: as above

Row | Substance | stoichiometry N [1] | stoichiometry N [2]
1 | recombinant soluble NDV HN ectodomain including the stalk domain, without oligomerization domain (HN-M) (domain or fragment) | 2 and 4 | –
2 | recombinant soluble NDV HN ectodomain with tetrabrachion tetramerization domain (HN-TE) | – | 4
